From the supplement of paper PMC11908140

B1: library; numbered along this chain (parent)
chain: MRKPRAAVGSGHRKQAASQEGRQKHAKNNSQAKPSACDGLARQPEEVVLQASVSSYHLFRDVAEVTAFRGSLLSWYDQEKRDLPWRRRAEDEMDLDRRAYAVWVSEVMLQQTQVATVINYYTGWMQKWPTLQDLASASLEEVNQLWAGLGYYSRGRRLQEGARKVVEELGGHMPRTAETLQQLLPGVGRYTAGAIASIAFGQATGVVDGNVARVLCRVRAIGADPSSTLVSQQLWGLAQQLVDPARPGDFNQAAMELGATVCTPQRPLCSQCPVESLCRARQRVEQEQLLASGSLSGSPDVEECAPNTGQCHLCLPPSEPWDQTLGVVNFPRKASRKPPREESSATCVLEQPGALGAQILLVQRPNSGLLAGLWEFPSVTWEPSEQLQRKALLQELQRWAGPLPATHLRHLGEVVHTFSHIKLTYQVYGLALEGQTPVTTVPPGARWLTQEEFHTAAVSTAMKKVFRVYQGQQPGTCMGSKRSQVSSPCSRKKPRMGQQVLDNFFRSHISTDAHSLNSAAQ

Variants of: B1
Experiment: 8OG:A repair function score (normalized; synonymous = 0, nonsense = -1) (normalized log-likelihood score); higher = more repair activity (WT-like)
Conditions: with 8OG:A DNA repair reporter (GFP) in HEK-293 MUTYH KO cells
Outline: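 GFP+ (repair) and GFP− bins of viable mCherry+ cells were collected at 72 h from MUTYH knockout HEK-293 cells bearing lentiviral MUTYH cDNA NNN codon-scan libraries in 10 pg/ml doxycycline, co-transfected with an 8OG:A GFP repair reporter and mCherry. Tile amplicons were sequenced, and per-tile Rosace fitness scores were normalized to a repair function score anchored on synonymous and nonsense distributions. Synonymous medians were set to 0 and nonsense to -1, with variants under 300 counts per million at the start removed.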
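Note: cells sorted at 72 h after reporter transfection.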

First: MRKPRAAVGSGHRKQAASQEGRQKHAKNNSQAKPSACDGLARQPEEVVLQASVSSYHLFRDVAEVTAFRGSLLSWYDQEKRDLPWRRRAEDEMDLDRRAYAVWVSEVMLQQTQVATVINYYTGWMQKWPTLQDLASASLEEVNQLWAGLGYYSRGRRLQEGARKVVEELGGHMPRTAETLQQLLPGVGRYTAGAIASIAFGQATGVVDGNVARVLCRVRAIGADPSSTLVSQQLWGLAQQLVDPARPGDFNQAAMELGATVCTPQRPLCSQCPVESLCRARQRVEQEQLLASGSLSGSPDVEECAPNTGQCHLCLPPSEPWDQTLGVVNFPRKASRKPPREESSATCVLEQPGALGAQILLVQRPNSGLLAGLWEFPSVTWEPSEQLQRKALLQELQRWAHPLPATHLRHLGEVVHTFSHIKLTYQVYGLALEGQTPVTTVPPGARWLTQEEFHTAAVSTAMKKVFRVYQGQQPGTCMGSKRSQVSSPCSRKKPRMGQQVLDNFFRSHISTDAHSLNSAAQ [G401H]
Second: MRKPRAAVGSGHRKQAASQEGRQKHAKNNSQAKPSACDGLARQPEEVVLQALVSSYHLFRDVAEVTAFRGSLLSWYDQEKRDLPWRRRAEDEMDLDRRAYAVWVSEVMLQQTQVATVINYYTGWMQKWPTLQDLASASLEEVNQLWAGLGYYSRGRRLQEGARKVVEELGGHMPRTAETLQQLLPGVGRYTAGAIASIAFGQATGVVDGNVARVLCRVRAIGADPSSTLVSQQLWGLAQQLVDPARPGDFNQAAMELGATVCTPQRPLCSQCPVESLCRARQRVEQEQLLASGSLSGSPDVEECAPNTGQCHLCLPPSEPWDQTLGVVNFPRKASRKPPREESSATCVLEQPGALGAQILLVQRPNSGLLAGLWEFPSVTWEPSEQLQRKALLQELQRWAGPLPATHLRHLGEVVHTFSHIKLTYQVYGLALEGQTPVTTVPPGARWLTQEEFHTAAVSTAMKKVFRVYQGQQPGTCMGSKRSQVSSPCSRKKPRMGQQVLDNFFRSHISTDAHSLNSAAQ [S52L]
The “8OG:A repair function score” value of the first is lower: -0.241 for the first, 0.00142 for the second.

Going from MRKPRAAVGSGHRKQAASQEGRQKHAKNNSQAKPSACDGLARQPEEVVLQASVSSYHLFRDVAEVTAFRGSLLSWYDQEKRDLPWRRRAEDEMDLDRRAYAVWVSEVMLQQTQVATVINYYTGWMQKWPTLQDLASASLEEVNQLWAGLGYYSRGRRLQEGARKVVEELGGHMPRTAETLQQLLPGVGRYTAGAIASIAFGQATGVVDGNVARVLCRVRAIGADPSSTLVSQQLWGLAQQLVDPARPGDFNQAAMELGATVCTPQRPLCSQCPVESLCRARQRVEQEQLLASGSLSGSPDVCECAPNTGQCHLCLPPSEPWDQTLGVVNFPRKASRKPPREESSATCVLEQPGALGAQILLVQRPNSGLLAGLWEFPSVTWEPSEQLQRKALLQELQRWAGPLPATHLRHLGEVVHTFSHIKLTYQVYGLALEGQTPVTTVPPGARWLTQEEFHTAAVSTAMKKVFRVYQGQQPGTCMGSKRSQVSSPCSRKKPRMGQQVLDNFFRSHISTDAHSLNSAAQ [E302C] to MRKPRAAVGSGHRKQAASQEGRQKHAKNNSQAKPSACDGLARQPEEVVLQASVSSYHLFRDVAEVTAFRGSLLSWYDQEKRDLPWRRRAEDEMDLDRRAYAVWVSEVMLQQTQVATVINYYTGWMQKWPTLQDLASASLEEVNQLWAGLGYYSRGRRLQEGARKVVEELGGHMPRTAETLQQLLPGVGRYTAGAIASIAHGQATGVVDGNVARVLCRVRAIGADPSSTLVSQQLWGLAQQLVDPARPGDFNQAAMELGATVCTPQRPLCSQCPVESLCRARQRVEQEQLLASGSLSGSPDVEECAPNTGQCHLCLPPSEPWDQTLGVVNFPRKASRKPPREESSATCVLEQPGALGAQILLVQRPNSGLLAGLWEFPSVTWEPSEQLQRKALLQELQRWAGPLPATHLRHLGEVVHTFSHIKLTYQVYGLALEGQTPVTTVPPGARWLTQEEFHTAAVSTAMKKVFRVYQGQQPGTCMGSKRSQVSSPCSRKKPRMGQQVLDNFFRSHISTDAHSLNSAAQ [F200H], the “8OG:A repair function score” value rises from -0.32 to -0.308.

First: MRKPRTAVGSGHRKQAASQEGRQKHAKNNSQAKPSACDGLARQPEEVVLQASVSSYHLFRDVAEVTAFRGSLLSWYDQEKRDLPWRRRAEDEMDLDRRAYAVWVSEVMLQQTQVATVINYYTGWMQKWPTLQDLASASLEEVNQLWAGLGYYSRGRRLQEGARKVVEELGGHMPRTAETLQQLLPGVGRYTAGAIASIAFGQATGVVDGNVARVLCRVRAIGADPSSTLVSQQLWGLAQQLVDPARPGDFNQAAMELGATVCTPQRPLCSQCPVESLCRARQRVEQEQLLASGSLSGSPDVEECAPNTGQCHLCLPPSEPWDQTLGVVNFPRKASRKPPREESSATCVLEQPGALGAQILLVQRPNSGLLAGLWEFPSVTWEPSEQLQRKALLQELQRWAGPLPATHLRHLGEVVHTFSHIKLTYQVYGLALEGQTPVTTVPPGARWLTQEEFHTAAVSTAMKKVFRVYQGQQPGTCMGSKRSQVSSPCSRKKPRMGQQVLDNFFRSHISTDAHSLNSAAQ [A6T]
Second: MRKPRAAVGSGHRKQAASQEGRQKHAKNNSQAKPSACDGLARQPEEVVLQASVSSYHLFRDVAEVTAFRGSLLSWYDQEKRDLPWRRRAEDEMDLDRRAYAVWVSEVMLQQTQVATVINYYTGWMQKWPTLQDLASASLEEVNQLWAGLGYYSRGRRLQEGARKVVEELGGHMPRTAETLQQLLPGVGRYTAGAIASIAFGQATGVVDGNVARVLCRVRAIGATPSSTLVSQQLWGLAQQLVDPARPGDFNQAAMELGATVCTPQRPLCSQCPVESLCRARQRVEQEQLLASGSLSGSPDVEECAPNTGQCHLCLPPSEPWDQTLGVVNFPRKASRKPPREESSATCVLEQPGALGAQILLVQRPNSGLLAGLWEFPSVTWEPSEQLQRKALLQELQRWAGPLPATHLRHLGEVVHTFSHIKLTYQVYGLALEGQTPVTTVPPGARWLTQEEFHTAAVSTAMKKVFRVYQGQQPGTCMGSKRSQVSSPCSRKKPRMGQQVLDNFFRSHISTDAHSLNSAAQ [D224T]
The “8OG:A repair function score” value of the first is higher: 0.0379 for the first, -0.955 for the second.

Compared with MRKPRAAVGSGHRKQAASQEGRQKHAKNNSQAKPSACDGLARQPEEVVLQASVSSYHLFRDVAEVTAFRGSLLSWYDQEKRDLPWRRRAEDEMDLDRRAYAVWVSEVMLQQTQVATVINYYTGWMQKWPTLQDLASASLEEVNQLWAGLGYYSRGRRLQEGARKVVEELGGHMPRTAETLQQLLPGVGRYTAGAIASIAFGQATGVVDGNVARVLCRVRAIGADPSSTLVSQQLWGLAQQLVDPARPGDFNQAAMELGATVCTPQRPLCSQCPVESLCRARQRVEQEQLLASGSLSGSPDVEECAPNTGQCHLCLPPSEPWDQTLGVVNFPRKASRKPPREESSATCVLEQPGALGAQILLVQRPNSGLLAGLWEFPSVTWEPSEQLQRKALLQELQRWDGPLPATHLRHLGEVVHTFSHIKLTYQVYGLALEGQTPVTTVPPGARWLTQEEFHTAAVSTAMKKVFRVYQGQQPGTCMGSKRSQVSSPCSRKKPRMGQQVLDNFFRSHISTDAHSLNSAAQ [A400D], MRKPRAAVGSGHRKQAASQEGRQKHAKNNSQAKPSACDGLARQPEEVVLQASVSSYHLFRDVAEVTAFRGSLLSWYDQMKRDLPWRRRAEDEMDLDRRAYAVWVSEVMLQQTQVATVINYYTGWMQKWPTLQDLASASLEEVNQLWAGLGYYSRGRRLQEGARKVVEELGGHMPRTAETLQQLLPGVGRYTAGAIASIAFGQATGVVDGNVARVLCRVRAIGADPSSTLVSQQLWGLAQQLVDPARPGDFNQAAMELGATVCTPQRPLCSQCPVESLCRARQRVEQEQLLASGSLSGSPDVEECAPNTGQCHLCLPPSEPWDQTLGVVNFPRKASRKPPREESSATCVLEQPGALGAQILLVQRPNSGLLAGLWEFPSVTWEPSEQLQRKALLQELQRWAGPLPATHLRHLGEVVHTFSHIKLTYQVYGLALEGQTPVTTVPPGARWLTQEEFHTAAVSTAMKKVFRVYQGQQPGTCMGSKRSQVSSPCSRKKPRMGQQVLDNFFRSHISTDAHSLNSAAQ [E79M] is higher in “8OG:A repair function score” value: -0.752 for the first, -0.00235 for the second.

First: MRKPRAAVGSGHRKQAASQEGRQKHAKNNSQAKPSACDGLARQPEEVVLQASVSSYHLFRDVAEVTAFRGSLLSWYDQEKRDLPWRRRAEDEMDLDRRAYAVWVSEVMLQQTQVATVINYYTGWMQKWPTLQDLASASLEEVNQLWAGLGYYSRGRRLQEGARKVVEELGGHMPRTAETLQQLLPGVGRYTAGAIASIAFGQATGVVDGNVARVLCRVRAIGADPSSTLVSQQLWGLAQQLVDPARPGDFNQAAMELGATVCTPQRPLCSQCPVESLCRARQRVEQEQLLASGSLSGSRDVEECAPNTGQCHLCLPPSEPWDQTLGVVNFPRKASRKPPREESSATCVLEQPGALGAQILLVQRPNSGLLAGLWEFPSVTWEPSEQLQRKALLQELQRWAGPLPATHLRHLGEVVHTFSHIKLTYQVYGLALEGQTPVTTVPPGARWLTQEEFHTAAVSTAMKKVFRVYQGQQPGTCMGSKRSQVSSPCSRKKPRMGQQVLDNFFRSHISTDAHSLNSAAQ [P299R]
Second: MRKPRAAVGSGHRKQAASQEGRQKHAKNNSQAKPSACDGLARQPEEVVLQASVSSYHLFRDVAEVTAFRGSLLSWYDQEKRDLPWRRRAEDEMDLDRRAYAVWVSEVMLQQTQVATVINYYTGWMQKWPTLQDLASASLEEVNQLWAGLGYYSRGRRLQEGARKVVEELGGHMPRTAETLQQLLPGVGRYTAGAIASIAFGQATGVVDGNTARVLCRVRAIGADPSSTLVSQQLWGLAQQLVDPARPGDFNQAAMELGATVCTPQRPLCSQCPVESLCRARQRVEQEQLLASGSLSGSPDVEECAPNTGQCHLCLPPSEPWDQTLGVVNFPRKASRKPPREESSATCVLEQPGALGAQILLVQRPNSGLLAGLWEFPSVTWEPSEQLQRKALLQELQRWAGPLPATHLRHLGEVVHTFSHIKLTYQVYGLALEGQTPVTTVPPGARWLTQEEFHTAAVSTAMKKVFRVYQGQQPGTCMGSKRSQVSSPCSRKKPRMGQQVLDNFFRSHISTDAHSLNSAAQ [V211T]
The “8OG:A repair function score” value of the first is higher: -0.000753 for the first, -0.428 for the second.

Going from MRKPRAAVGSGHRKQAASQEGRQKHAKNNSQAKPSACDGLARQPEEVVLQASVSSYHLARDVAEVTAFRGSLLSWYDQEKRDLPWRRRAEDEMDLDRRAYAVWVSEVMLQQTQVATVINYYTGWMQKWPTLQDLASASLEEVNQLWAGLGYYSRGRRLQEGARKVVEELGGHMPRTAETLQQLLPGVGRYTAGAIASIAFGQATGVVDGNVARVLCRVRAIGADPSSTLVSQQLWGLAQQLVDPARPGDFNQAAMELGATVCTPQRPLCSQCPVESLCRARQRVEQEQLLASGSLSGSPDVEECAPNTGQCHLCLPPSEPWDQTLGVVNFPRKASRKPPREESSATCVLEQPGALGAQILLVQRPNSGLLAGLWEFPSVTWEPSEQLQRKALLQELQRWAGPLPATHLRHLGEVVHTFSHIKLTYQVYGLALEGQTPVTTVPPGARWLTQEEFHTAAVSTAMKKVFRVYQGQQPGTCMGSKRSQVSSPCSRKKPRMGQQVLDNFFRSHISTDAHSLNSAAQ [F59A] to MRKPRAAVGSGHRKQAASQEGRQKHAKNNSQAKPSACDGLARQPEEVVLQASVSSYHLFRDVAEVTAFRGSLLSWYDQEKRDLPWRRRAEDEMDLDRRAYAVWVSEVMLQQTQVATVINYYTGWMQKWPTLQDLASASLEEVNQLWAGLGYYSRGRRLQEGARKVVEELGGHMPRTAETLQQLLPGVGRYTAGAIASIAFGQATGVVDGNVARVLCRVRAIGADPSSTLVSQQLWGLAQQLVDPARPGDFNQAAMELGATVCTPQRPLCSQCPVESLCRARQRVEQEQLLASGSLSGSPDVEECAPNTGQCHLCLPPSEPWDQTLGVVNFPRKASRKPPREESSATCVLEQPGALGAQILLVQRPNSGLLAGLWEFPSVTWEPSEQLQRKALLQELQRWAGPLPATHLRWLGEVVHTFSHIKLTYQVYGLALEGQTPVTTVPPGARWLTQEEFHTAAVSTAMKKVFRVYQGQQPGTCMGSKRSQVSSPCSRKKPRMGQQVLDNFFRSHISTDAHSLNSAAQ [H410W], the “8OG:A repair function score” value falls from -0.359 to -0.367.
